Results reported in PMC6733935, “A convenient and efficient total solid-phase synthesis of DOTA-functionalized tumor-targeting peptides for PET imaging of cancer” (EJNMMI Research, 2019).
Square brackets hold non-standard residues; d marks the D form. Peptide text beside a SMILES is read from it. * marks the point of attachment. DOTA = O=C(O)CN1CCN(CC(=O)O)CCN(CC(=O)*)CCN(CC(=O)O)CC1; Cha = N[C@@H](CC1CCCCC1)C(=O)O; 4Abz = Nc1ccc(C(=O)O)cc1; Nle = CCCC[C@H](N)C(=O)O; Ahx = NCCCCCC(=O)O

Columns and labels:
[1] = target: T1, BN/GRP receptor-positive MDA-MB-231 human breast cancer cells (Homo sapiens, UniProt P30550); experiment: Saturation binding assay on MDA-MB-231 cells; settings: n = 3-5 experiments; for Bmax (apparent number of binding sites per cell): SD < 15%
T1 construct: BN/GRP receptor-positive MDA-MB-231, MCF7, T47D human breast cancer, and PC3 human prostate cancer lines; host or cells: MDA-MB-231, MCF7, T47D (human breast cancer), PC3 (human prostate cancer); intact cells
Protocol: (§1) The cell binding of ^68Ga-radiolabeled peptides into BN/GRP receptor-positive MDA-MB-231, MCF7, T47D human breast cancer, and PC3 human prostate cancer lines (American Type Culture Collection, Rockville, MD, USA) was performed according to the method described previously. In brief, ∼ 300,000 cells (in 300 μL in low-serum media) were incubated with various amounts of radiopeptides, ranging between 0.1 and 25 nM of peptide (prepared from the serial dilutions of HPLC-purified radiopeptides), in duplicate for 60 min at room temperature. The initial concentrations of ^68Ga-labeled peptides were determined according to a well-established HPLC technique with simultaneous detection by UV absorbance. As the amount of BN peptide in the reaction mixture was too small to be detected by UV absorption at 220 nm, the radioactive peptide chromatograms from the HPLC analysis were compared (with UV chromatograms) with those of known concentrations of the corresponding nonradioactive peptides for the mass determination. Incubation was terminated by dilution with cold saline (300 μL) and the cells were pelleted by centrifugation. The cell pellets was then rapidly washed with cold saline to remove any unbound peptide and centrifuged to collect supernatants. Radioactivity in the cell pellet and the washings was measured in a γ-counter. Non-specific binding was determined in the presence of ~ 200-fold molar excess of unlabeled BN peptide. Specific binding is calculated by subtracting the non-specifically bound radioactivity from that of the total binding. The dissociation constant (Kd) was calculated using a plot of cell bound activity versus the concentration of the radioligand using GraphPad Prism software (GraphPad Software Inc., San Diego, CA, USA).

MDA-MB-231 tumors = experiment: in vivo; type: in vivo, nude mice; settings: for Uptake in Tumor: nude mice with MDA-MB-231 tumors, mean ± SD, n = 3-5
Protocol: BN/GRP receptor-positive MDA-MB-231 and PC3 cell lines (American Type Culture Collection, Rockville, USA) were grown as monolayers at 37 °C in a humidified atmosphere containing RPMI-1640 culture media with 10% fetal bovine serum (FBS) in tissue culture flasks. Twenty-four hours prior to conducting the tumor implantation, the media was replaced with RPMI-1640/10% FBS. The cells were grown to 80-90% confluency and harvested by trypsinization. After centrifugation, about 50 million cells were suspended in 1 mL media for implantation into mice. To prepare cells for inoculation, MDA-MB-231 or PC3 cancer cells with media were centrifuged, the media decanted, and the cell pellet was mixed with phosphate-buffered saline (PBS) to reach a concentration of approximately 5 million cells per 100 μL PBS. Human MDA-MB-231 breast cancer xenografts female mouse models were used for in vivo tumor-targeting experiments. For the implantation of tumor xenografts, approximately five million MDA-MB-231 cells in suspension of 100 μL sterile PBS were injected subcutaneously into the left thigh of each mouse. Tumors were allowed to grow for 4-6 weeks by which tumors had reached weights of 200-300 mg. After sufficient growth of tumors, animals were injected with 20-30 μCi of the radiotracers and the animals were sacrificed at specified time points. The uptake of ^68Ga-radiolabeled peptides in the tumors and other major body organs was calculated by γ-counting as described above.

[2] = target: T2, BN/GRP receptor-positive MCF7 human breast cancer cells (Homo sapiens, UniProt P30550); experiment: Saturation binding assay on MCF7 cells; settings: n = 3-5 experiments; for Bmax (apparent number of binding sites per cell): SD < 15%
T2 construct: BN/GRP receptor-positive MDA-MB-231, MCF7, T47D human breast cancer, and PC3 human prostate cancer lines; host or cells: MDA-MB-231, MCF7, T47D (human breast cancer), PC3 (human prostate cancer); intact cells
Protocol: as §1

in vivo = experiment: in vivo; design: species or system Balb/c mice; settings: Balb/c, mouse, iv; for dose excreted at 1 h / dose excreted at 2 h / tissue uptake at 1 h / tissue uptake at 2 h: total radioactivity
Protocol: Approval for the animal protocol used in this study was obtained from the Institutional Animal Care and Use Committee. Animal studies were conducted according to the international regulations governing the safe and proper use of laboratory animals. In vivo biodistribution were performed on healthy Balb/c mice (n = 3–5 in each group, body weight 19–22 g) at 1 and 2 h after intravenous injection of the HPLC-purified radiopeptide (100 μL, 15–20 μCi, total peptide dose ~ 20 ng) via the lateral tail vein. The mice were sacrificed by cervical dislocation at specified time points and blood samples were withdrawn with a syringe from the heart. Major organs such as lungs, stomach, spleen, pancreas, intestines, liver, kidneys, etc. were isolated, weighed, and radioactivity in each organs and tissues were measured using a γ-scintillation counter. Uptake of radioactivity in the tissues and organs was expressed as the percent injected dose per gram (% ID/g) of tissue/organ, which was calculated by comparison with standard solutions representing 10% of the injected dose per animal. For the clearance studies, radioactivity in the urine with bladder and feces is expressed as the percent of the injected dose per tissue (% ID). Values are expressed as mean ± SD for a group of 3-5 animals at each time point.

[3] = target: T3, BN/GRP receptor-positive PC3 human prostate cancer cells (Homo sapiens, UniProt P30550); experiment: Saturation binding assay on PC3 cells; settings: n = 3-5 experiments; for Bmax (apparent number of binding sites per cell): SD < 15%
T3 construct: BN/GRP receptor-positive MDA-MB-231, MCF7, T47D human breast cancer, and PC3 human prostate cancer lines; host or cells: MDA-MB-231, MCF7, T47D (human breast cancer), PC3 (human prostate cancer); intact cells
Protocol: as §1

[4] = target: T4, BN/GRP receptor-positive T47D human breast cancer cells (Homo sapiens, UniProt P30550); experiment: Saturation binding assay on T47D cells; settings: n = 3-5 experiments; for Bmax (apparent number of binding sites per cell): SD < 15%
T4 construct: BN/GRP receptor-positive MDA-MB-231, MCF7, T47D human breast cancer, and PC3 human prostate cancer lines; host or cells: MDA-MB-231, MCF7, T47D (human breast cancer), PC3 (human prostate cancer); intact cells
Protocol: as §1

[5] = Uptake in Intestines (measured without their contents)
[6] = ~300,000 cells, 0.1-25 nM radiopeptide, 60 min, room temperature, mean ± SD
[7] = female, nude, mouse, in vivo, 1 h

| SMILES | Bmax (apparent number of binding sites per cell) [1] | Uptake in Tumor (MDA-MB-231 tumors; 1 h p.i.) | Uptake in Tumor (MDA-MB-231 tumors; 2 h p.i.) | Bmax (apparent number of binding sites per cell) [2] | dose excreted at 1 h (in vivo; %ID excreted in Feces) | dose excreted at 2 h (in vivo; %ID excreted in Feces) | dose excreted at 2 h (in vivo; %ID excreted in Urine) | tissue uptake at 1 h (in vivo; Uptake in Blood) | tissue uptake at 1 h (in vivo; Uptake in Bone) | tissue uptake at 2 h (in vivo; Uptake in Bone) | tissue uptake at 1 h (in vivo; [5]) | tissue uptake at 2 h (in vivo; [5]) | tissue uptake at 1 h (in vivo; Uptake in Kidneys) | tissue uptake at 2 h (in vivo; Uptake in Kidneys) | tissue uptake at 2 h (in vivo; Uptake in Liver) | tissue uptake at 1 h (in vivo; Uptake in Pancreas) | tissue uptake at 2 h (in vivo; Uptake in Pancreas) | tissue uptake at 1 h (in vivo; Uptake in Spleen) | tissue uptake at 2 h (in vivo; Uptake in Spleen) | tissue uptake at 1 h (in vivo; Uptake in Stomach) | also measured |
| --- | --- | --- | --- | --- | --- | --- | --- | --- | --- | --- | --- | --- | --- | --- | --- | --- | --- | --- | --- | --- | --- |
| CCCC[C@H](NC(=O)[C@H](Cc1c[nH]cn1)NC(=O)[C@H](CC1CCCCC1)NC(=O)[C@@H](NC(=O)[C@H](C)NC(=O)[C@H](Cc1c[nH]c2ccccc12)NC(=O)[C@H](CCC(N)=O)NC(=O)[C@H](CS)NC(=O)CNC(=O)CNC(=O)c1ccc(NC(=O)CN2CCN(CC(=O)O)CCN(CC(=O)O)CCN(CC(=O)O)CC2)cc1)C(C)C)C(=O)N[C@@H](CCSC)C(N)=O [^68Ga-DOTA-Abz-BN Cyclen, metal not drawn] ({DOTA-4Abz}-GGCQWAV[Cha]H[Nle]M-NH2) | 6.09 × 10^5 sites/cell | 1.84 ± 0.40 % ID/g | 1.30 ± 0.37 % ID/g | 5.12 × 10^5 sites/cell | 1.01 ± 0.2% | 0.88 ± 0.12% | 62 ± 9.54% | 0.4 ± 0.11 %ID/g | 0.13 ± 0.04 %ID/g | 0.09 ± 0.01 %ID/g | 0.85 ± 0.17 %ID/g | 0.53 ± 0.14 %ID/g | 2.96 ± 0.3 %ID/g | 1.88 ± 0.25 %ID/g | 0.5 ± 0.07 %ID/g | 1.07 ± 0.13 %ID/g | 0.88 ± 0.11 %ID/g | 0.12 ± 0.02 %ID/g | 0.07 ± 0.01 %ID/g | 1.69 ± 0.24 %ID/g | %ID excreted in Urine (in vivo; 1 h): 70.0 ± 8.60 %ID; Uptake in Liver (in vivo; 1 h): 0.68 ± 0.16 %ID/g; Uptake in Lungs (in vivo; 1 h): 0.21 ± 0.05 %ID/g; tissue uptake at 2 h (in vivo; Uptake in Stomach): 0.45 ± 0.1 %ID/g; Bmax (apparent number of binding sites per cell) [3]: 4.30 × 10^5 sites/cell; Bmax (apparent number of binding sites per cell) [4]: 1.17 × 10^5 sites/cell |
| CCCC[C@H](NC(=O)[C@H](Cc1c[nH]cn1)NC(=O)[C@H](CC1CCCCC1)NC(=O)[C@@H](NC(=O)[C@H](C)NC(=O)[C@H](Cc1c[nH]c2ccccc12)NC(=O)[C@H](CCC(N)=O)NC(=O)[C@H](CS)NC(=O)CNC(=O)CNC(=O)CCCCCNC(=O)CN1CCN(CC(=O)O)CCN(CC(=O)O)CCN(CC(=O)O)CC1)C(C)C)C(=O)N[C@@H](CCSC)C(N)=O [^68Ga-DOTA-Ahx-BN Cyclen, metal not drawn] ({DOTA-Ahx}-GGCQWAV[Cha]H[Nle]M-NH2) | 5.13 × 10^5 sites/cell | 2.32 ± 0.25 % ID/g | 1.65 ± 0.19 % ID/g | 6.90 × 10^5 sites/cell | 0.85 ± 0.17% | 0.76 ± 0.11% | 64 ± 6.35% | 0.18 ± 0.04 %ID/g | 0.15 ± 0.03 %ID/g | 0.06 %ID/g | 0.64 ± 0.12 %ID/g | 0.41 ± 0.05 %ID/g | 1.98 ± 0.34 %ID/g | 1.41 ± 0.27 %ID/g | 0.46 ± 0.07 %ID/g | 1.49 ± 0.12 %ID/g | 1.02 ± 0.15 %ID/g | 0.13 ± 0.01 %ID/g | 0.09 ± 0.01 %ID/g | 1.48 ± 0.22 %ID/g | Kd [1, 6]: 12.7 ± 2.94 nM; washout from the tumors over 2 h (MDA-MB-231 tumors; MDA-MB-231 tumors, nude mice, 1 h vs 2 h p.i.): 28%; Uptake in Liver (MDA-MB-231 tumors; [7]): 1.02 ± 0.16 % ID/g; Uptake in Lungs (MDA-MB-231 tumors; [7]): 0.55 ± 0.10 % ID/g; Uptake in Liver (MDA-MB-231 tumors; female, nude, mouse, in vivo, 2 h): 0.91 ± 0.10 % ID/g; Kd [2, 6]: 9.8 ± 1.64 nM; Uptake in Lungs (in vivo; 2 h): 0.10 ± 0.02 %ID/g; dose excreted at 1 h (in vivo; %ID excreted in Urine): 80 ± 9.8%; tissue uptake at 2 h (in vivo; Uptake in Blood): 0.11 ± 0.03 %ID/g; tissue uptake at 1 h (in vivo; Uptake in Liver): 0.61 ± 0.1 %ID/g; tissue uptake at 1 h (in vivo; Uptake in Lungs): 0.19 ± 0.04 %ID/g; tissue uptake at 2 h (in vivo; Uptake in Stomach): 0.43 ± 0.11 %ID/g; Bmax (apparent number of binding sites per cell) [3]: 5.29 × 10^5 sites/cell; Kd [3, 6]: 9.89 ± 1.56 nM; Bmax (apparent number of binding sites per cell) [4]: 4.75 × 10^5 sites/cell; Kd [4, 6]: 15.3 ± 3.42 nM |
